Measured values reported in article PMC3933655, “An Improved Single Cell Ultrahigh Throughput Screening Method Based on In Vitro Compartmentalization” (PLoS ONE, 2014).
Where a chain is given by its changes, count along the chain named. Numbers in names are those of the source.

B1: AFEST (Archaeoglobus fulgidus DSM 4304) (protein)
chain: MLDMPIDPVYYQLAEYFDSLPKFDQFSSAREYREAINRIYEERNRQLSQHERVERVEDRTIKGRNGDIRVRVYQQKPDSPVLVYYHGGGFVICSIESHDALCRRIARLSNSTVVSVDYRLAPEHKFPAAVYDCYDATKWVAENAEELRIDPSKIFVGGDSAGGNLAAAVSIMARDSGEDFIKHQILIYPVVNFVAPTPSLLEFGEGLWILDQKIMSWFSEQYFSREEDKFNPLASVIFADLENLPPALIITAEYDPLRDEGEVFGQMLRRAGVEASIVRYRGVLHGFINYYPVLKAARDAINQIAALLVFD
notes: pET-28a(+) in E. coli BL21-CodonPlus(DE3), Ni-NTA purified; 5' primer starts … (MLDMPI)
B2: AFEST (Archaeoglobus fulgidus DSM 4304; V293E) (protein)
chain: B1 chain with V293E
notes: as for B1
B3: AFEST (Archaeoglobus fulgidus DSM 4304; F287Y/S94G) (protein)
chain: B1 chain with S94G, F287Y
notes: as for B1
B4: AFEST (Archaeoglobus fulgidus DSM 4304; V293G) (protein)
chain: B1 chain with V293G
notes: as for B1

substrate: CCCC(=O)Oc1ccc2c(c1)Oc1cc(OC(=O)CCC)ccc1C21OC(=O)c2ccccc21; assay: cells, lysate or membranes; format: cell-based, Archaeoglobus fulgidus; conditions: bulk reaction; enzyme preparation not told in main text (AFEST displayed on E. coli in the parallel droplet assay)

| Protein | Km [µM] |
| --- | --- |
| B1 | 240 |

substrate: CCCC(=O)Oc1ccc([N+](=O)[O-])cc1; assay: hydrolysis kinetics; format: biochemical, Archaeoglobus fulgidus; conditions: 37°C
Source text: hydrolysis kinetics on AFEST

| Protein | Km [µM] | kcat [s⁻¹] | kcat/Km [M⁻¹ s⁻¹] |
| --- | --- | --- | --- |
| B1 | 22.47 | 135 | 6.03e+06 |
| B2 | 12.13 | 138 | 1.14e+07 |
| B3 | 15.42 | 155 | 1e+07 |
| B4 | 9.74 | 118 | 1.21e+07 |
